Source: CN111978395A (UNIV SICHUAN, dated 2020)

Legend:
[1] = biological target: SARS-CoV2病毒的囊膜蛋白SPIKE (SARS-CoV2, UniProt P0DTC2 14-1273); assay: cell-based or functional assay
[2] = biological target: T1, SARS-CoV2病毒表面SPIKE蛋白的RBD结构域 (SARS-CoV2, UniProt P0DTC2 319-541); assay: Biacore (SPR), recombinant antibody against RBD
[3] = biological target: T1, SARS-CoV2病毒表面SPIKE蛋白的RBD结构域; assay: Biacore blocking experiment, antibody of the hybridoma clone

Row | Binder | EC50(nM), 阻断假病毒感染 (GFP阳性细胞) [1] | EC50(μg/mL), 阻断假病毒感染 (GFP阳性细胞) [1] | Kd [2] | 阻断率 [3]
1 | DK14 (antibody, V domains shown) VH: QVQLQQPGAELVKPGASVKLSCKASGYTFISYWMHWVKQRPGQGLEWIGEIDPSDSYTNSNQKFKGKATLTVDKSSSTAYMQLSSLTSEDSAVYYCARSELWAMDYWGQGTSVTVSS VL: DIVMTQAAFSNPVTLGTSASISCRSSKSLLHSHGITYLYWYLQKPGQSPQLLIYQMSNLASGVPDRFSSSGSGTDFTLRISRVEAEDVGVYYCAQNLELPWTFGGGTKLEIR | 0.41 nM | 0.062 µg/mL |  | 
2 | DK5 (antibody, V domains shown) VH: QVQLQQPGAELVKPGASVKMSCKASGYTFTSYSMHWVKQTPGQGLEWIGAIYPGNGDTSYNQKFKGKATLTADKSSSTAYMQLSSLTSEDSAVYYCARDYHYDGYYVTLDYWGQGTTLTVSS VL: DIQMTQSPSSLSASLGERVSLTCRASQEISGYLSWLQQKPDGTIKRLIYAASTLDSGVPKRFSGSRSGSDYSLTISSLESEDFADYYCLQYASYPWTFGGGTKLEIK | 0.1 nM | 0.015 µg/mL | < 1 nM | ≥ 60%
3 | DK7 (antibody, V domains shown) VH: QVQLQQPGAELVKPGASVKMSCKASGYTFTSYSMHWVKQTPGQGLEWIGAIYPGNGDTSYNQKFKGKATLTADKSSSTAYMQLSSLTSEDSAVYYCARDYHYDGYYVTLDYWGQGTTLTVSS VL: DIQMTQSPSSLSASLGERVSLTCRASQEISGYLSWLQQKPDGTIKRLIYAASTLDSGVPKRFSGSRSGSDYSLTISSLESEDFADYYCLQYASYPWTFGGGTKLEIK | 0.47 nM | 0.071 µg/mL |  | 
4 | DK10 (antibody, V domains shown) VH: QVQLQQPGAELVKPGASVKMSCKASGYTFTSYSMHWVKQTPGQGLEWIGAIYPGNGDTSYTQKFKGKATLTADKSSSTAYMQLNSLTSEDSAVYYCARDYHYDGYYVTLDYWGQGTTLTVSS VL: DIQMTQSPSSLSASLGERVSLTCRASQEISGYLSWLQQKPDGTIKRLIYAASTLDSGVPKRFSGSRSGSDYSLTISSLESEDFADYYCLQYASYPWTFGGGTKLEIK | 1.63 nM | 0.245 µg/mL |  | 
5 | DK6 (antibody, V domains shown) VH: QVQLQQPGTELVKPGASVKMSCKASGYTFTSYSIHWVKQTPGQGLEWIGAIYPGNGDTSYNQKFKGKATLTADKSSSTAYMQLSSLTSEDSAVYYCARDYHYDGYYVTLDYWGQGTTLTVSS VL: DIQMTQSPSSLSASLGERVSLTCRASQEISGYLSWLQQKPDGTIKRLIYAASTLDSGVPKRFSGSRSGSDYSLTISSLESEDFADYYCLQYASYPWTFGGGTKLEIK | 0.47 nM | 0.071 µg/mL | < 1 nM | ≥ 60%
6 | DK15 (antibody, V domains shown) VH: QVQLQQPGAEFVMPGASVKMSCKASGYTFTDYWMHWVKQRPGQGLEWIGAIDTSDTYTRYNQKFKDKATLTVDESSSTAYMQLSSLTSEDSAVYYCARFLYYYGNPTFDYWGQGTTLTVSS VL: DVQITQSPSYLAASPGETITINCRASKSISKYLAWYQEKPGKTNKLLIYSGSTLQSGIPSRFSGSGSGTDFTLTISSLEPEDFAMYYCQQHNEYPLTFGAGTKLELK | 1.27 nM | 0.191 µg/mL |  | 
7 | DK11 (antibody, V domains shown) VH: EVQLQQSGPELVKPGASVKISCKASGYSFTGYFMNWVKQSHGKSLEWIGRINPYNGDTFYNQKFKGKATLTVDKSSSTAHMELLSLTSEDSAVYYCGRGYLDYWGQGTTLTVSS VL: DIVMTQSHKFMSTSVGDRVSITCKASQDVSTAVAWYQQKPGQSPKLLIFSASYRYTGVPDRFTGSGSGTDFTFTISSVQAEDLAVYYCQEHYSNPYTFGGGTKLEIK | 0.34 nM | 0.051 µg/mL |  | 
8 | DK2 (antibody, V domains shown) VH: QVQLQQPGAELVKPGASVKMSCKASGYTFISYSMHWVKQTPGQGLEWIGAIYPGNGDTSYTQKFKGKATLTADKSSTTAYMQLSSLTSEDSAVYYCARDHGNYVLDYWGQGTTLTVSS VL: DIVMTQSHKFMSTSVGDRVSITCKASQDVGTAVAWYQQKPGQSPKLLIYWASTRHTGVPDRFTGSGSGTDFTLTISNVQSEDLADYFCQQYSSYPWTFGGGTKLEIK | 0.083 nM | 0.012 µg/mL | < 1 nM | ≥ 60%
